For series [1], the target named is T1, Tm6PGDH (6-phosphogluconate dehydrogenase from Thermotoga maritima) (Thermotoga maritima, UniProt Q9WYR9, N32D/R33L/T34S).
T1 construct: gene TM_0438; full length in pET20b, C-terminal His tag (LEHHHHHH from primer), E. coli BL21(DE3), Ni-NTA; primers encode N-terminus MKSHIGLI and C-terminus NWEEGEIG before the tag
Briefly: NAD(P)H formation at […] nm, Michaelis-Menten fit. The class given is biochemical. Particulars: 2 mM 6-phosphogluconate, 5 mM MgCl2, 0.5 mM MnCl2, 100 mM HEPES pH 7.5, 70 °C; apparent Km; read-out: Km (mM) / NADP^+. The text has this: (§1) (6-phosphogluconate dehydrogenase from Thermotoga maritima)

Substrate in series [2]: NC(=O)c1ccc[n+]([C@@H]2O[C@H](COP(=O)(O)OP(=O)(O)OC[C@H]3O[C@@H](n4cnc5c(N)ncnc54)[C@H](O)[C@@H]3O)[C@@H](O)[C@H]2O)c1
The series is described as follows: purified protein. Type of series: biochemical, Thermotoga maritima. Particulars: 2 mM 6-phosphogluconate, 5 mM MgCl2, 0.5 mM MnCl2, 100 mM HEPES pH 7.5, 70 °C, apparent Km.
Source text: as §1

Substrate in series [3]: NC(=O)c1ccc[n+]([C@@H]2O[C@H](COP(=O)(O)OP(=O)(O)OC[C@H]3O[C@@H](n4cnc5c(N)ncnc54)[C@H](OP(=O)(O)O)[C@@H]3O)[C@@H](O)[C@H]2O)c1
The series is described as follows: purified protein. The class given is biochemical, Thermotoga maritima. The conditions noted are these: 2 mM 6-phosphogluconate, 5 mM MgCl2, 0.5 mM MnCl2, 100 mM HEPES pH 7.5, 70 °C, apparent Km.
Source text: as §1

In the case of `NC(=O)c1ccc[n+]([C@@H]2O[C@H](COP(=O)(O)OP(=O)(O)OC[C@H]3O[C@@H](n4cnc5c(N)ncnc54)[C@H](OP(=O)(O)O)[C@@H]3O)[C@@H](O)[C@H]2O)c1` [NADP^+], the Km in series [1] was greater than 100 mM.

B1: Tm6PGDH (6-phosphogluconate dehydrogenase from Thermotoga maritima) (Thermotoga maritima MSB8) (protein)
chain: MKSHIGLIGLAVMGQNLALNIARKGYKVSVYNRTAQRTEEFVKNRVTNEEIEPHYDIESFVKSLERPRKIILMVKAGKPVDDTISQLLPHLEPGDLIIDGGNSHYMDTERRFKELSEKGILFLGMGVSGGEYGALHGPSLMPGGSREAYNLVEEILLEIAAKTEDGPCCTYVGERSAGHFVKMVHNGIEYAIMQAIAEVYHIMRDVLSLSSEEMSSIFEEWNRGELSSFLVEITYKILRKKDEETGKPMVDVILDKAEQKGTGKWTSQAALDLGIPTPSINLAVVERVISHFKDIRTRLSKLYNKRRSATQGSEEFLRDLRNSLFFAMFMAFSQGMWLIAEASKEFGYGVSLSEVLRIWKGGCIIRAKLIDTLRRYISNENAYLLENEEVMNLLKGKIDSLKNILKASIENEIPVPVLSSSYNYFMSLTEERLPANLIQAQRDFFGAHTFERVDREGVFHINWEEGEIG
notes: full length in pET20b, C-terminal His tag (LEHHHHHH from primer), E. coli BL21(DE3), Ni-NTA; primers encode N-terminus MKSHIGLI and C-terminus NWEEGEIG before the tag
One may read the kcat as the maximal rate divided by the concentration of active sites. In general, kcat/Km refers to the second-order rate constant that governs catalysis at low substrate concentration. Take B1: in “purified protein [2]”, the Km amounted to 4.3 ± 0.4 mM, the kcat was 23.3 ± 2 s⁻¹ and the kcat/Km came out at 5400 M⁻¹ s⁻¹. Besides, in the series “purified protein [3]”, the Km is 0.005 ± 0.0004 mM, the kcat came out at 17.6 ± 0.7 s⁻¹ and the kcat/Km turned out to be 3.52e+06 M⁻¹ s⁻¹.

B2: Tm6PGDH (6-phosphogluconate dehydrogenase from Thermotoga maritima) (Thermotoga maritima MSB8; N32D) (protein)
chain: MKSHIGLIGLAVMGQNLALNIARKGYKVSVYDRTAQRTEEFVKNRVTNEEIEPHYDIESFVKSLERPRKIILMVKAGKPVDDTISQLLPHLEPGDLIIDGGNSHYMDTERRFKELSEKGILFLGMGVSGGEYGALHGPSLMPGGSREAYNLVEEILLEIAAKTEDGPCCTYVGERSAGHFVKMVHNGIEYAIMQAIAEVYHIMRDVLSLSSEEMSSIFEEWNRGELSSFLVEITYKILRKKDEETGKPMVDVILDKAEQKGTGKWTSQAALDLGIPTPSINLAVVERVISHFKDIRTRLSKLYNKRRSATQGSEEFLRDLRNSLFFAMFMAFSQGMWLIAEASKEFGYGVSLSEVLRIWKGGCIIRAKLIDTLRRYISNENAYLLENEEVMNLLKGKIDSLKNILKASIENEIPVPVLSSSYNYFMSLTEERLPANLIQAQRDFFGAHTFERVDREGVFHINWEEGEIG
notes: as for B1
On to B2, for which, in the series “purified protein [2]”, the Km is 4.0 ± 0.1 mM, the kcat was 29.3 ± 1.2 s⁻¹ and the kcat/Km was found to be 7300 M⁻¹ s⁻¹. Also, in “purified protein [3]”, the Km was 2.3 ± 0.1 mM, the turnover number (kcat) turned out to be 16.7 ± 1 s⁻¹ and the kcat/Km stood at 7300 M⁻¹ s⁻¹.

B3: Tm6PGDH (6-phosphogluconate dehydrogenase from Thermotoga maritima) (Thermotoga maritima MSB8; N32D/R33I/T34I) (protein)
chain: MKSHIGLIGLAVMGQNLALNIARKGYKVSVYDIIAQRTEEFVKNRVTNEEIEPHYDIESFVKSLERPRKIILMVKAGKPVDDTISQLLPHLEPGDLIIDGGNSHYMDTERRFKELSEKGILFLGMGVSGGEYGALHGPSLMPGGSREAYNLVEEILLEIAAKTEDGPCCTYVGERSAGHFVKMVHNGIEYAIMQAIAEVYHIMRDVLSLSSEEMSSIFEEWNRGELSSFLVEITYKILRKKDEETGKPMVDVILDKAEQKGTGKWTSQAALDLGIPTPSINLAVVERVISHFKDIRTRLSKLYNKRRSATQGSEEFLRDLRNSLFFAMFMAFSQGMWLIAEASKEFGYGVSLSEVLRIWKGGCIIRAKLIDTLRRYISNENAYLLENEEVMNLLKGKIDSLKNILKASIENEIPVPVLSSSYNYFMSLTEERLPANLIQAQRDFFGAHTFERVDREGVFHINWEEGEIG
notes: as for B1
Consider B3, for which, in “purified protein [2]”, the Km is 3.9 ± 0.4 mM, the kcat was determined as 32.2 ± 2.2 s⁻¹ and the kcat/Km stood at 8300 M⁻¹ s⁻¹. In the series “purified protein [3]”, the Km stood at 70 ± 17 mM, the kcat stood at 15.9 ± 5.8 s⁻¹ and the kcat/Km stood at 200 M⁻¹ s⁻¹.

B4: Tm6PGDH (6-phosphogluconate dehydrogenase from Thermotoga maritima) (Thermotoga maritima MSB8; N32E/R33I/T34I) (protein)
chain: MKSHIGLIGLAVMGQNLALNIARKGYKVSVYEIIAQRTEEFVKNRVTNEEIEPHYDIESFVKSLERPRKIILMVKAGKPVDDTISQLLPHLEPGDLIIDGGNSHYMDTERRFKELSEKGILFLGMGVSGGEYGALHGPSLMPGGSREAYNLVEEILLEIAAKTEDGPCCTYVGERSAGHFVKMVHNGIEYAIMQAIAEVYHIMRDVLSLSSEEMSSIFEEWNRGELSSFLVEITYKILRKKDEETGKPMVDVILDKAEQKGTGKWTSQAALDLGIPTPSINLAVVERVISHFKDIRTRLSKLYNKRRSATQGSEEFLRDLRNSLFFAMFMAFSQGMWLIAEASKEFGYGVSLSEVLRIWKGGCIIRAKLIDTLRRYISNENAYLLENEEVMNLLKGKIDSLKNILKASIENEIPVPVLSSSYNYFMSLTEERLPANLIQAQRDFFGAHTFERVDREGVFHINWEEGEIG
notes: as for B1
In the case of B4, in the series “purified protein [2]”, the Km was determined as 2.5 ± 0.2 mM, the kcat worked out at 47.9 ± 2.2 s⁻¹ and the kcat/Km amounted to 19200 M⁻¹ s⁻¹. Moreover, in the series “purified protein [3]”, the Km is 79 ± 20 mM, the kcat turned out to be 15.9 ± 7.9 s⁻¹ and the kcat/Km was 200 M⁻¹ s⁻¹.

B5: Tm6PGDH (6-phosphogluconate dehydrogenase from Thermotoga maritima) (Thermotoga maritima MSB8; N32D/R33L/T34S) (protein)
chain: MKSHIGLIGLAVMGQNLALNIARKGYKVSVYDLSAQRTEEFVKNRVTNEEIEPHYDIESFVKSLERPRKIILMVKAGKPVDDTISQLLPHLEPGDLIIDGGNSHYMDTERRFKELSEKGILFLGMGVSGGEYGALHGPSLMPGGSREAYNLVEEILLEIAAKTEDGPCCTYVGERSAGHFVKMVHNGIEYAIMQAIAEVYHIMRDVLSLSSEEMSSIFEEWNRGELSSFLVEITYKILRKKDEETGKPMVDVILDKAEQKGTGKWTSQAALDLGIPTPSINLAVVERVISHFKDIRTRLSKLYNKRRSATQGSEEFLRDLRNSLFFAMFMAFSQGMWLIAEASKEFGYGVSLSEVLRIWKGGCIIRAKLIDTLRRYISNENAYLLENEEVMNLLKGKIDSLKNILKASIENEIPVPVLSSSYNYFMSLTEERLPANLIQAQRDFFGAHTFERVDREGVFHINWEEGEIG
notes: as for B1
On to B5, for which, in the series “purified protein [2]”, the Km is 7.5 ± 0.8 mM, the kcat is 25.4 ± 1.4 s⁻¹ and the kcat/Km was found to be 3400 M⁻¹ s⁻¹.

The values above are taken from publication PMC5090862, “Coenzyme Engineering of a Hyperthermophilic 6-Phosphogluconate Dehydrogenase from NADP^+ to NAD^+ with Its Application to Biobatteries” (Scientific Reports, 2016).
